Among the data in US20250059284A1 are Mean OD value and % Competition against g7B07-Biot values, retold here.

Assay [1] addresses galectin-10 (Gal10), species and tag not stated for the assay (UniProt Q05315). Nature of the assay: competition ELISA; negative control; competitor biotinylated g7B07 hFab (detected).
Assay [2] has the same target. Nature of the assay: competition ELISA; negative control, set as 0% competition; competitor biotinylated g7B07 hFab.

galectin-10 (Gal10), species and tag not stated for the assay, sequence (Q05315 2-142 limits assumed): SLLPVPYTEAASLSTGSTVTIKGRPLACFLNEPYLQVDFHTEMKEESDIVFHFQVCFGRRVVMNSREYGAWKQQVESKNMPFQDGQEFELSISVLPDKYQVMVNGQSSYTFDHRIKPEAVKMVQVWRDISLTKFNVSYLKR

Regarding Motavizumab in human Fab backbone, in assay [1], the Mean OD value stood at 2.51 OD. The substance also showed a % Competition against g7B07-Biot in assay [2] of 0%.
